Here are results for two substances from article PMC3826083.

What is called Kd is the free concentration of one partner at which half of the binding sites on the other are occupied at equilibrium, for simple one-to-one binding. High values mean a looser complex, low ones a tighter complex.

One assay deals with mCherry-R125I. As to the kind of experiment: fluorescence polarisation. In general terms: Fluorescence polarisation rises when a labelled molecule tumbles more slowly, as on binding a larger partner.
Another assay has as its target mCherry-R125I/T127V. Kind of assay: fluorescence polarisation.

As for mCherry-R125I, in the assay with mCherry-R125I, the Kd came to 35 µM. For mCherry-R125I/T127V, in the assay with mCherry-R125I/T127V, the Kd was found to be 0.091 µM.
